Source: patent publication US20250027068

Target: pooled human IgG

Protein	Enzyme Activity Endpoint Assay (purified): Fab'2	Enzyme Activity Endpoint Assay (purified): Fc	Enzyme Activity Endpoint Assay (purified): IgG	Enzyme Activity Endpoint Assay (purified): scIgG	Enzyme Activity Endpoint Assay: Fab′2	Enzyme Activity Endpoint Assay: Fc	Enzyme Activity Endpoint Assay: IgG	Enzyme Activity Endpoint Assay: scIgG
PRT-128 (protein) MRNATEAYAKEVPKQITSVWTKGVTPPTPEQFRYNNEDVIHAPYLANQGWYDITKTFNGKDNLLCGAATAGNMLHWWFDQNKTEIEAYLSKHPEKQKIIFNNQELFDLKAAIDTKDSQTNSQLFNYFRDKAFPNLSARQLGVMPDLVLDMFINGYYLNVFKTQSTDVNRPYQDKDKRGGIFDAVFTRGDQTTLLTARHDLKNKTLNDISTLIKQELTEGKALALSHTYANVSISHVINLWGADFNAEGNLEAIYVTDSDANASIGMKKYFVGVNAHGKVAISAKKIEGENIGAQVLGLFTLSSGKDIWQKLS	560 ng/µL	151 ng/µL	0 ng/µL	60 ng/µL				
PRT-129 (protein) MRNATEAYAKEVPHQITSVWTKGVTPLTPEQFRYNNEDVFHAPYLANQGWYDITKAFDGKDNLLCGAATAGNMLHWWFDQNKTEIEAYLSKHPEKQKIIFNNQELFDLKAAIDTKDSQTNSQLFNYFRDKAFPNLSARQLGVMPDLVLDMFINGYYLNVFKTQSTDVNRPYQDKDKRGGIFDAVFTRGDQTKLLTARHDLKNKGLNDISTLIKQELTEGRALALSHTYANVSISHVINLWGADFNAEGNLEAIYVTDSDANASIGMKKYFVGINAHGHVAISAKKIEGENIGAQVLGLFTLSSGKDIWQKLS	384 ng/µL	169 ng/µL	0 ng/µL	0 ng/µL				
PRT-11 (protein) MANQEIRYSEETPYHVTSVWTKGVTPPANFTQGEDVFHAPYVANQGWYDITKTFNGKDDLLCGAATAGNMLHWWFDQNKDQIEKYLKEHPEKQKINFNGEQMFDVKEAIDTKDSQTDSKLFEYFKEKAFPYLSTKHLGVFPDHVIDMFINGYRLSLTNHGPTPVKEQSKDPRGGIFDAVFTRGDQSKLLTSRHDFKEKTLKEISDLIKKELSEGKALGLSHTYANVRINHVINLWGADFDSNGNLKAIYVTDSDSNASIGMKKYFVGVNSAGKVAISAKEIKEDNIGAQVLGLFTLSTGQDIWNQTN					40 ng/µL	100 ng/µL	13 ng/µL	0 ng/µL
PRT-130 (protein) MRNATEAYAKEVPHQITSVWTKGVTPLTPEQFRYNNEDVIHAPYLAHQGWYDITKAFDGKDNLLCGAATAGNMLHWWFDQNKTEIEAYLSKHPEKQKIIFNNQELFDLKAAIDTKDSQTNSQLFNYFRDKAFPNLSARQLGVMPDLVLDMFINGYYLNVFKTQSTDVNRPYQDKDKRGGIFDAVFTRGDQTTLLTARHDLKNKGLNDISDIIKQELTEGRALALSHTYANVSISHVINLWGADFNAEGNLEAIYVTDSDSNASIGMKKYFVGINAAGHVAISAKKIEGENIGAQVLGLFTLSSGKDIWQKLS	592 ng/µL	192 ng/µL	0 ng/µL	0 ng/µL				
PRT-131 (protein) MRNATEAYAKEVPHQITSVWTKGVTPLTPEQFRYNNEDVIHAPYLAHQGWYDITKAFNGKDNLLCGAATAGNMLHWWFDQNKTEIEAYLKKHPEKQKIIFNNQELFDLKAAIDTKDSQTNSQLFNYFRDKAFPNLSARQLGVMPDLVLDMFINGYYLNVFKTQSTDVNRPYQDKDKRGGIFDAVFTRGDQTTLLTARHDLKNKGLNEISTIIKQELTEGRALALSHTYANVSISHVINLWGADFNAEGNLEAIYVTDSDANASIGMKKYFVGINAHGKVAISAKKIEGENIGAQVLGLFTLSSGKDIWQKLS	745 ng/µL	201 ng/µL	0 ng/µL	0 ng/µL				
